In the test the target is Native MBP (UniProt P0AEX9 27-392 = MBP). The test is described as follows: in vitro pull-down on amylose resin, SDS-PAGE and autoradiography. On the procedure: The ^35S-labeled XA21 kinase was then incubated with resin-bound MBP or MBP fusion proteins (1 ug) in the binding buffer [20 mM Hepes (pH 7.4), 1 mM EDTA, 5 mM MgCl_2, 1 mM DTT, 0.1% Triton X-100, 1 mg/ml BSA, 1× complete protease inhibitors (Roche Diagnostics)] for 120 min at 4° C. with gentle shaking. After washing with the washing buffer [20 mM Hepes (pH 7.4), 1 mM EDTA, 5 mM MgCl_2, 1 mM DTT, 0.1% Triton X-100] five times, the bound proteins were eluted with the washing buffer supplemented with 10 mM maltose and resolved by 8% SDS-PAGE according to Laemmli. Laemmli, Nature 227, 680 (1970). The gel was stained with Coomassie brilliant blue R-250, dried, and exposed to X-ray film.

B1: 35S-labeled XA21 kinase (enzyme)
chain: HKRTKKGAPSRTSMKGHPLVSYSQLVKATDGFAPTNLLGSGSFGSVYKGKLNIQDHVAVKVLKLENPKALKSFTAECEALRNMRHRNLVKIVTICSSIDNRGNDFKAIVYDFMPNGSLEDWIHPETNDQADQRHLNLHRRVTILLDVACALDYLHRHGPEPVVHCDIKSSNVLLDSDMVAHVGDFGLARILVDGTSLIQQSTSSMGFIGTIGYAAPEYGVGLIASTHGDIYSYGILVLEIVTGKRPTDSTFRPDLGLRQYVELGLHGRVTDVVDTKLILDSENWLNSTNNSPCRRITECIVWLLRLGLSCSQELPSSRTPTGDIIDELNAIKQNLSGLFPVCEGGSLEF
modifications: 35S-methionine labelled by in vitro transcription/translation. The label does not change the letters.
notes: Made with the TnT kit from a pET-28a construct; also called XA21 protein labeled with 35S; not shown: Vector-encoded N-terminal leader of pET-28a (His/T7 tag and the few residues from the BamHI/SalI primer sites)
Consider B1, for which the binding result is on record as “no binding (tested: 1 ug resin-bound protein)”.

The record behind these values is patent US6750057 (UNIVERSITY OF FLORIDA, dated 2004).
